Assay results taken from publication PMC9352680, “A comprehensive thermodynamic model for RNA binding by the Saccharomyces cerevisiae Pumilio protein PUF4”.

Biological target: T1, PUF4 RNA-binding domain (Saccharomyces cerevisiae, UniProt P25339 537-888)
T1 sequence: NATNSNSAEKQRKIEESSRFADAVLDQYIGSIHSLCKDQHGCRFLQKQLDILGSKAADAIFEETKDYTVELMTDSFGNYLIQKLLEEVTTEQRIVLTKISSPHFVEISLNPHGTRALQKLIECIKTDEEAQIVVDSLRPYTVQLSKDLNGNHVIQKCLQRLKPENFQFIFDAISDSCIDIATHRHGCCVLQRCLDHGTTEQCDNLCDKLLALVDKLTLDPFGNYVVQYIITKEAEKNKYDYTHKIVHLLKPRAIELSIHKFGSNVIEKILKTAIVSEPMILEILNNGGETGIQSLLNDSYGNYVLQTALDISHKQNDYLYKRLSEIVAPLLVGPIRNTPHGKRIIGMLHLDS
Test: Mg; RNA-MaP; 20 mM Na-HEPES pH 7.4, 30 mM KOAc, 0.75 mM MgCl2, 0.1% Tween-20, 5% glycerol, 0.1 mg/mL BSA, 2 mM DTT; 25 C; 0.0125-409.6 nM protein
Settings: tags: N-His6-TEV cleaved; C-SNAP kept, Cy3B-labelled; label: tethered on chip by stalled RNA polymerase

| Binder | Kd [nM] |
| --- | --- |
| ACAAACACACACUAUAUUACAAAC (ssRNA) [Id_ii_S3_P3E.4_K3.3_C3.2_[C-2A]_[T-1C]_H3.3_A3.1_F3.1_T3.2_[A10T]] | 1650 |
| ACAAACAUACACUAUACCACAAAC (ssRNA) [Id_ii_S3_P3E.4_K3.3_C3.2_[C-2A]_H3.3_A3.1_F3.1_T3.2_[T9C]_[A10C]] | 1760 |
| ACAAACAUACACUAUAUUACAAAC (ssRNA) [Id_ii_S3_P3E.4_K3.3_C3.2_[C-2A]_H3.3_A3.1_F3.1_T3.2_[A10T]] | 556 |
| ACAAACCGACACUAUAAAACAAAC (ssRNA) [Id_ii_S3_P3E.4_K3.3_C3.2_[T-1G]_H3.3_A3.1_F3.1_T3.2_[T9A]] | > 2300 |
| ACAAACCUACACUAUAGAACAAAC (ssRNA) [Id_ii_S3_P3E.4_K3.3_C3.2_H3.3_A3.1_F3.1_T3.2_[T9G]] | > 2300 |
| ACAAACGCUAUAUAUUAUUACAAAC (ssRNA) [Id_ii_S3_P4E.3_K4.2_C4.2_[C-2G]_[T-1C]_H4.2_A4.1_F4.1_T4.2_[G10T]] | 14.4 |
| ACAAACGCUAUAUAUUACCACAAAC (ssRNA) [Id_ii_S3_P4E.3_K4.2_C4.2_[C-2G]_[T-1C]_H4.2_A4.1_F4.1_T4.2_[G10C]_[T11C]] | 27.1 |
| ACAAACGAUAUAUAUUACAACAAAC (ssRNA) [Id_ii_S3_P4E.3_K4.2_C4.2_[C-2G]_[T-1A]_H4.2_A4.1_F4.1_T4.2_[G10C]_[T11A]] | 50.4 |
| ACAAACUUACACUAUAGCACAAAC (ssRNA) [Id_ii_S3_P3E.4_K3.3_C3.2_[C-2T]_H3.3_A3.1_F3.1_T3.2_[T9G]_[A10C]] | 2170 |
| UCUCUUUGUAAUAUUUUCUCUU (ssRNA) [Ib_S1_P5E.1_K5.1_C5.1_H5.1_A5.1_[T5A]_F5.1_[A10T]_T5.1] | 15 |
| ACAAACGAUAUAUAUUACCACAAAC (ssRNA) [Id_ii_S3_P4E.3_K4.2_C4.2_[C-2G]_[T-1A]_H4.2_A4.1_F4.1_T4.2_[G10C]_[T11C]] | 53.1 |
| ACAAACUGACACUAUAGAACAAAC (ssRNA) [Id_ii_S3_P3E.4_K3.3_C3.2_[C-2T]_[T-1G]_H3.3_A3.1_F3.1_T3.2_[T9G]] | 1880 |
| ACAAACCUACACUAUACUACAAAC (ssRNA) [Id_ii_S3_P3E.4_K3.3_C3.2_H3.3_A3.1_F3.1_T3.2_[T9C]_[A10T]] | > 2300 |
| ACAAACCGACACUAUACAACAAAC (ssRNA) [Id_ii_S3_P3E.4_K3.3_C3.2_[T-1G]_H3.3_A3.1_F3.1_T3.2_[T9C]] | > 2300 |
| ACAAACCUACACUAUAAAACAAAC (ssRNA) [Id_ii_S3_P3E.4_K3.3_C3.2_H3.3_A3.1_F3.1_T3.2_[T9A]] | > 2300 |
| ACAAACAUACACUAUAACACAAAC (ssRNA) [Id_ii_S3_P3E.4_K3.3_C3.2_[C-2A]_H3.3_A3.1_F3.1_T3.2_[T9A]_[A10C]] | 1680 |
| UCUCUUUGUAUGAUUCUCUCUU (ssRNA) [Ib_S1_P5E.1_K5.1_C5.1_H5.1_A5.1_[T6G]_F5.1_[A10C]_T5.1] | 90 |
| ACAAACAAACACUAUAGGACAAAC (ssRNA) [Id_ii_S3_P3E.4_K3.3_C3.2_[C-2A]_[T-1A]_H3.3_A3.1_F3.1_T3.2_[T9G]_[A10G]] | > 2300 |
| ACAAACUGACACUAUACCACAAAC (ssRNA) [Id_ii_S3_P3E.4_K3.3_C3.2_[C-2T]_[T-1G]_H3.3_A3.1_F3.1_T3.2_[T9C]_[A10C]] | > 2300 |
| ACAAACAUACACUAUAUCACAAAC (ssRNA) [Id_ii_S3_P3E.4_K3.3_C3.2_[C-2A]_H3.3_A3.1_F3.1_T3.2_[A10C]] | 1230 |

| Binder | Kd [nM] |
| --- | --- |
| ACAAACGGUAUAUAUUAAGACAAAC (ssRNA) [Id_ii_S3_P4E.3_K4.2_C4.2_[C-2G]_[T-1G]_H4.2_A4.1_F4.1_T4.2_[G10A]_[T11G]] | 48.8 |
| ACAAACGCUAUAUAUUACAACAAAC (ssRNA) [Id_ii_S3_P4E.3_K4.2_C4.2_[C-2G]_[T-1C]_H4.2_A4.1_F4.1_T4.2_[G10C]_[T11A]] | 24.5 |
| ACAAACAUACACUAUAGAACAAAC (ssRNA) [Id_ii_S3_P3E.4_K3.3_C3.2_[C-2A]_H3.3_A3.1_F3.1_T3.2_[T9G]] | 1310 |
| ACAAACCUACACUAUAUCACAAAC (ssRNA) [Id_ii_S3_P3E.4_K3.3_C3.2_H3.3_A3.1_F3.1_T3.2_[A10C]] | 1760 |
| ACAAACCCACACUAUAGCACAAAC (ssRNA) [Id_ii_S3_P3E.4_K3.3_C3.2_[T-1C]_H3.3_A3.1_F3.1_T3.2_[T9G]_[A10C]] | > 2300 |
| UCUCUUUGUAGUAUUUUCUCUU (ssRNA) [Ib_S1_P5E.1_K5.1_C5.1_H5.1_A5.1_[T5G]_F5.1_[A10T]_T5.1] | 101 |
| ACAAACAAACACUAUACAACAAAC (ssRNA) [Id_ii_S3_P3E.4_K3.3_C3.2_[C-2A]_[T-1A]_H3.3_A3.1_F3.1_T3.2_[T9C]] | > 2300 |
| ACAAACUUACACUAUAUAACAAAC (ssRNA) [Id_ii_S3_P3E.4_K3.3_C3.2_[C-2T]_H3.3_A3.1_F3.1_T3.2] | 968 |
| ACAAACCUACACUAUACAACAAAC (ssRNA) [Id_ii_S3_P3E.4_K3.3_C3.2_H3.3_A3.1_F3.1_T3.2_[T9C]] | 1880 |
| ACAAACUAACACUAUAUUACAAAC (ssRNA) [Id_ii_S3_P3E.4_K3.3_C3.2_[C-2T]_[T-1A]_H3.3_A3.1_F3.1_T3.2_[A10T]] | 2240 |
| ACAAACAUACACUAUACUACAAAC (ssRNA) [Id_ii_S3_P3E.4_K3.3_C3.2_[C-2A]_H3.3_A3.1_F3.1_T3.2_[T9C]_[A10T]] | 1070 |
| ACAAACCGACACUAUAUAACAAAC (ssRNA) [Id_ii_S3_P3E.4_K3.3_C3.2_[T-1G]_H3.3_A3.1_F3.1_T3.2] | > 2300 |
| UCUCUUUGUACUAUUUUCUCUU (ssRNA) [Ib_S1_P5E.1_K5.1_C5.1_H5.1_A5.1_[T5C]_F5.1_[A10T]_T5.1] | 10.2 |
| ACAAACUCACACUAUAGCACAAAC (ssRNA) [Id_ii_S3_P3E.4_K3.3_C3.2_[C-2T]_[T-1C]_H3.3_A3.1_F3.1_T3.2_[T9G]_[A10C]] | > 2300 |
| ACAAACAGACACUAUAUUACAAAC (ssRNA) [Id_ii_S3_P3E.4_K3.3_C3.2_[C-2A]_[T-1G]_H3.3_A3.1_F3.1_T3.2_[A10T]] | 2200 |
| ACAAACCUACACUAUAAUACAAAC (ssRNA) [Id_ii_S3_P3E.4_K3.3_C3.2_H3.3_A3.1_F3.1_T3.2_[T9A]_[A10T]] | > 2300 |
| ACAAACUCACACUAUAUUACAAAC (ssRNA) [Id_ii_S3_P3E.4_K3.3_C3.2_[C-2T]_[T-1C]_H3.3_A3.1_F3.1_T3.2_[A10T]] | 2080 |
| ACAAACCCACACUAUAUUACAAAC (ssRNA) [Id_ii_S3_P3E.4_K3.3_C3.2_[T-1C]_H3.3_A3.1_F3.1_T3.2_[A10T]] | 2120 |
| ACAAACACACACUAUAGCACAAAC (ssRNA) [Id_ii_S3_P3E.4_K3.3_C3.2_[C-2A]_[T-1C]_H3.3_A3.1_F3.1_T3.2_[T9G]_[A10C]] | > 2300 |
| ACAAACUUACACUAUAAAACAAAC (ssRNA) [Id_ii_S3_P3E.4_K3.3_C3.2_[C-2T]_H3.3_A3.1_F3.1_T3.2_[T9A]] | > 2300 |

| Binder | Kd [nM] |
| --- | --- |
| ACAAACCGACACUAUACUACAAAC (ssRNA) [Id_ii_S3_P3E.4_K3.3_C3.2_[T-1G]_H3.3_A3.1_F3.1_T3.2_[T9C]_[A10T]] | > 2300 |
| UCUCUUUGUAAUAUUCUCUCUU (ssRNA) [Ib_S1_P5E.1_K5.1_C5.1_H5.1_A5.1_[T5A]_F5.1_[A10C]_T5.1] | 21.6 |
| ACAAACGCUAUAUAUUAAUACAAAC (ssRNA) [Id_ii_S3_P4E.3_K4.2_C4.2_[C-2G]_[T-1C]_H4.2_A4.1_F4.1_T4.2_[G10A]] | 19.9 |
| ACAAACGUACACUAUAACACAAAC (ssRNA) [Id_ii_S3_P3E.4_K3.3_C3.2_[C-2G]_H3.3_A3.1_F3.1_T3.2_[T9A]_[A10C]] | 100 |
| ACAAACACACACUAUAUCACAAAC (ssRNA) [Id_ii_S3_P3E.4_K3.3_C3.2_[C-2A]_[T-1C]_H3.3_A3.1_F3.1_T3.2_[A10C]] | > 2300 |
| ACAAACCCACACUAUAAGACAAAC (ssRNA) [Id_ii_S3_P3E.4_K3.3_C3.2_[T-1C]_H3.3_A3.1_F3.1_T3.2_[T9A]_[A10G]] | > 2300 |
| ACAAACUGACACUAUAUUACAAAC (ssRNA) [Id_ii_S3_P3E.4_K3.3_C3.2_[C-2T]_[T-1G]_H3.3_A3.1_F3.1_T3.2_[A10T]] | 1340 |
| ACAAACUGACACUAUACUACAAAC (ssRNA) [Id_ii_S3_P3E.4_K3.3_C3.2_[C-2T]_[T-1G]_H3.3_A3.1_F3.1_T3.2_[T9C]_[A10T]] | > 2300 |
| ACAAACCUACACUAUAUGACAAAC (ssRNA) [Id_ii_S3_P3E.4_K3.3_C3.2_H3.3_A3.1_F3.1_T3.2_[A10G]] | > 2300 |
| ACAAACGCUAUAUAUUAUCACAAAC (ssRNA) [Id_ii_S3_P4E.3_K4.2_C4.2_[C-2G]_[T-1C]_H4.2_A4.1_F4.1_T4.2_[G10T]_[T11C]] | 20.1 |
| ACAAACUGACACUAUAAGACAAAC (ssRNA) [Id_ii_S3_P3E.4_K3.3_C3.2_[C-2T]_[T-1G]_H3.3_A3.1_F3.1_T3.2_[T9A]_[A10G]] | > 2300 |
| ACAAACUAACACUAUAUAACAAAC (ssRNA) [Id_ii_S3_P3E.4_K3.3_C3.2_[C-2T]_[T-1A]_H3.3_A3.1_F3.1_T3.2] | > 2300 |
| ACAAACUUACACUAUAUUACAAAC (ssRNA) [Id_ii_S3_P3E.4_K3.3_C3.2_[C-2T]_H3.3_A3.1_F3.1_T3.2_[A10T]] | 959 |
| ACAAACCUACACUAUAGCACAAAC (ssRNA) [Id_ii_S3_P3E.4_K3.3_C3.2_H3.3_A3.1_F3.1_T3.2_[T9G]_[A10C]] | 2260 |
| ACAAACGUACACUAUAUCACAAAC (ssRNA) [Id_ii_S3_P3E.4_K3.3_C3.2_[C-2G]_H3.3_A3.1_F3.1_T3.2_[A10C]] | 51 |
| ACAAACCCACACUAUACGACAAAC (ssRNA) [Id_ii_S3_P3E.4_K3.3_C3.2_[T-1C]_H3.3_A3.1_F3.1_T3.2_[T9C]_[A10G]] | > 2300 |
| ACAAACAGACACUAUACAACAAAC (ssRNA) [Id_ii_S3_P3E.4_K3.3_C3.2_[C-2A]_[T-1G]_H3.3_A3.1_F3.1_T3.2_[T9C]] | > 2300 |
| ACAAACUCACACUAUAGAACAAAC (ssRNA) [Id_ii_S3_P3E.4_K3.3_C3.2_[C-2T]_[T-1C]_H3.3_A3.1_F3.1_T3.2_[T9G]] | > 2300 |
